From IntAct's records for PubMed 24895401

B1: Ras GTPase-activating-like protein IQG1 (Saccharomyces cerevisiae), Q12280 (parent)
chain: MTAYSGSPSKPGNNNSYLNRYVENLGTNVTPPLRPQSSSKINSSLNIASPSHLKTKTSASNSSATILSKKVESSVSKLKPSLPNKLVGKYTVDLSNYSKIELRYYEFLCRVSEVKIWIEAVIEEALPSEIELCVGDSLRNGVFLAKLTQRINPDLTTVIFPAGDKLQFKHTQNINAFFGLVEHVGVPDSFRFELQDLYNKKNIPQVFETLHILISMINKKWPGKTPALTNVSGQISFTKEEIAACKKAWPRIRDFKSLGTNINTAPASPEEPKEKRSGLIKDFNKFERPNIPVEEILITPRKNITDANCSDFSNTPSPYNEAPKMSNLDVVVEKRKFTPIEPSLLGPTPSLEYSPIKNKSLSYYSPTISKYLTYDTEFYTRRSRAREEDLNYYQTFKYSPSHYSPMRRERMTEEQFLEKVVQLQNICRGVNTRFNLYIQKRLLNLFEQDILRFQACLRGNKFRVLSSMYLPIRRAKIDVPHVEAIQSRIKGSRIRYKYDKLKFTLSRFSCTVELLQAYCRSKLLKTTVNTKLNDIEISHYPLTKLQSYMRASYVRKKVMSLNTKLNDERESIMKFSAIIRGNVVRCSEDAILSAVHDVHKENISKLQSLIRGIFTRSCLASIIYSLGKENCNIIQLSACIRGNAVRHKVQSLFAPENNLSETVHDLQGLVRGILVRYTLDLVDDIVEYNNLALFQAFSRGALVRESLDQKSSFYKRNVRSVIMIQSWIRKSLQRSAYLELLDCPNPSLWAVKKFVHLLNGTATIEEVQNQLESCQASLDSENMKKERLLKSIRQQLNINGVLDKFGLLKDKDHELGISDSTIPKSKYQKYEKLFYMLQVDPSYWKLLYLKEPEFVAKNVYMTFGTVNQRMNDRERSYFTRFVCEMLQNAINEAPSIESFLDNRSQFWQTILQDFLRRESPEFFSIIVPVLDYLSDPVVDFESDPYKIYQEIHGFSSPQHCSPVDDASTKNKFIDNLRCLWHAIEMVAEIYTRKVHTIPVEIRYLCTKIFCYAADKNIEEIDSLRAISSILVNVFVSEYLVNREYYGYKDSNVQKNNQKIDILMKSLATVFEIKNFDGFLDPLNQYANEIKPHIKDVLYNVLVDPEYEQEGDRLIYLDMVSPSPKLELLTEKVLEISGKFEEYLNEFPEADILHDILEKNLDNSSFPRSGRVTLELDASAYRFLVSDDKMRKIYDQVKRAFVYMMQIEDVDTNLYDLSISTILPQDEPNFANFLEQNPKIRDDPMIQKLKPLKYFTLKNVTLKKIHELESTGTFCSSDNKLQNFLNDIANTIKNPNYAIDYVTQEIYITKETLTKISEMNHSLDIELSRLKKHVDHTIKDFQKAKDFSPVHKSKFGNFKNAVKKVQGRERSELQGMKFKWNTKQLYERGVLKTIRGEKLAELTVKVFGSSGPKFPDIIFKISTSDGSRFGIQMIDKRKGPDKRYSDDVDSFSFKDLIKTQVEPKIETWKLFHSNVVVNNSQLLHLIVSFFYKRNAL
partner: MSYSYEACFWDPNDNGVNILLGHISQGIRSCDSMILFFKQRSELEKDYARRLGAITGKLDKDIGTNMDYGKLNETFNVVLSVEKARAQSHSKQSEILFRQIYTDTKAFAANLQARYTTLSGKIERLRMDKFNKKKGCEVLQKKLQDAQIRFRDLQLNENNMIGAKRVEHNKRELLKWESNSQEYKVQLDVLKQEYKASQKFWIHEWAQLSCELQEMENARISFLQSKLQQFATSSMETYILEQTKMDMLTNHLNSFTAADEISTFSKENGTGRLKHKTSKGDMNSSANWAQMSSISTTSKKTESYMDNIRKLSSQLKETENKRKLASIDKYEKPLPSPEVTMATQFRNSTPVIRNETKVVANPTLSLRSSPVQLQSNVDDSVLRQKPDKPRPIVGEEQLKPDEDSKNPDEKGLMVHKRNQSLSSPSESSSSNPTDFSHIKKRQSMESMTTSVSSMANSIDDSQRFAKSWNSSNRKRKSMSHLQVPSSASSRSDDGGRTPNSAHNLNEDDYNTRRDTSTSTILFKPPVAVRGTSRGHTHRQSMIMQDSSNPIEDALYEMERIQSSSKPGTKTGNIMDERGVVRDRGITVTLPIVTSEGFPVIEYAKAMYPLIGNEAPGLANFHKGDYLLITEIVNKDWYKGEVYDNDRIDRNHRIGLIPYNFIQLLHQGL

Variants of: B1
Details: with cyk2_yeast HOF1, Q05080

Variant | effect of a mutation on the interaction
Q725S | with no effect
Q667S | disrupting interaction strength
Q695S | disrupting interaction strength
Q667S;Q695S | disrupting interaction strength
